In this test the target is T1, E. coli SufE (E. coli), P76194.
T1 chain: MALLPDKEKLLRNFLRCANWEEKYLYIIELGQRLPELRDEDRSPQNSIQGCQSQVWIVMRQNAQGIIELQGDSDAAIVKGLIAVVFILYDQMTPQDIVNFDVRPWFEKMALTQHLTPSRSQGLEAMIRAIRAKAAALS
The experiment in a line: cross-linking; disulfide-linked species after treatment with 1 mM H2O2; SDS-PAGE under reducing (+DTT) and non-reducing (-DTT) conditions. The note with it: remark: other sources report otherwise.

The values below come from publication PMC10216065.

B1: E. coli SufE, P76194 1-138 (natural protein)
chain: MALLPDKEKLLRNFLRCANWEEKYLYIIELGQRLPELRDEDRSPQNSIQGCQSQVWIVMRQNAQGIIELQGDSDAAIVKGLIAVVFILYDQMTPQDIVNFDVRPWFEKMALTQHLTPSRSQGLEAMIRAIRAKAAALS
The molecule B1 returned a percent of total SufE as disulfide-bonded homodimer of 34%.
